Laboratory results published in article PMC5766566, “Characterization of human small heat shock protein HSPB1 α-crystallin domain localized mutants associated with hereditary motor neuron diseases” (Scientific Reports, 2018).

Assays:
Conditions in all cases: both partners purified
[1] = biological target: T1, human small heat shock protein HSPB1, wild type (human, UniProt P04792 1-205); test: cross-linking; disulfide cross-linking of mixtures: 50 μM of each protein in 50 mM sodium phosphate pH 7.5, 100 mM NaCl, 5 mM DTT overnight at 37 °C, then dialysis without DTT at 20 °C for 24 h; non-reducing SDS-PAGE
T1 construct: HSPB1 (HSP27), human; six Trp); Two constructs and two purification routes were used and are said to give indistinguishable proteins; Polydisperse oligomer, on average 23 subunits by SEC-SAXS; also called HSP27; WT HSPB1; source: recombinant (pET23b or pETHSUK construct), expressed as described earlier; purified (ammonium sulfate fractionation, anion-exchange, SEC; or subtractive IMAC, …
T1 sequence (P04792 whole entry): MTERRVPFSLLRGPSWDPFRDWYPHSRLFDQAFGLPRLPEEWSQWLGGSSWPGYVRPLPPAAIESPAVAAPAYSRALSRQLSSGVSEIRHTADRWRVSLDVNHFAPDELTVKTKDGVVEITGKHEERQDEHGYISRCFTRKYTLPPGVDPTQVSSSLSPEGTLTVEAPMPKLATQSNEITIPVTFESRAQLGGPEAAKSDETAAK

human HSPB1 R127W mutant [2] = biological target: T2, human HSPB1 R127W mutant (human, UniProt P04792 1-205, R127W); test: as above
T2 construct: HSPB1 (HSP27), human, with the autosomal dominant Charcot-Marie-Tooth mutation R127W; Disease mutation found in patients; Probably the whole protein; SUMO carrier probably removed (subtractive IMAC); source: recombinant (pET23b or pETHSUK construct), expressed as described earlier
T2 sequence (P04792 whole entry R127W): as the sequence (P04792 whole entry) above, with R127W counted along it

human HSPB1 S135F mutant [3] = biological target: T3, human HSPB1 S135F mutant (human, UniProt P04792 1-205, S135F); test: as above
T3 construct: HSPB1 (HSP27), human, with the autosomal dominant Charcot-Marie-Tooth mutation S135F; Disease mutation found in patients; Probably the whole protein; SUMO carrier probably removed (subtractive IMAC); The abstract once prints R135F for this mutant; source: recombinant (pET23b or pETHSUK construct), expressed as described earlier; purified (ammonium sulfate fractionation, anion-exchange, SEC; or …)
T3 sequence (P04792 whole entry S135F): as the sequence (P04792 whole entry) above, with S135F counted along it

human HSPB1 R127W mutant [4] = biological target: T2, human HSPB1 R127W mutant; test: SEC; equimolar mixture, 30 μM per monomer of each sHSP in buffer S, preincubated at 4 °C for 1 hr, then Superdex 200 HR
human HSPB1 S135F mutant [5] = biological target: T3, human HSPB1 S135F mutant; test: as above
[6] = biological target: T1, human small heat shock protein HSPB1, …; test: SEC; equimolar mixture, 30 μM per monomer of each sHSP in buffer S, preincubated at 42 °C for 1 hr, then Superdex 200 HR

Measured: binding result

B1: human HSPB6 C46S/E116C double mutant (natural protein, UniProt O14558 1-160, looked up)
chain: MEIPVPVQPSWLRRASAPLPGLSAPGRLFDQRFGEGLLEAELAALSPTTLAPYYLRAPSVALPVAQVPTDPGHFSVLLDVKHFSPEEIAVKVVGEHVEVHARHEERPDEHGFVARCFHRRYRLPPGVDPAAVTSALSPEGVLSIQAAPASAQAPPPAAAK
notes: HSPB6 (HSP20), human, double mutant C46S/E116C made for disulfide cross-linking
binds: [1] | human HSPB1 R127W mutant [2] | human HSPB1 S135F mutant [3]

B2: human HSPB6, wild type (natural protein, UniProt O14558 1-160, looked up)
chain: MEIPVPVQPSWLRRASAPLPGLSAPGRLFDQRFGEGLLEAELAALCPTTLAPYYLRAPSVALPVAQVPTDPGHFSVLLDVKHFSPEEIAVKVVGEHVEVHARHEERPDEHGFVAREFHRRYRLPPGVDPAAVTSALSPEGVLSIQAAPASAQAPPPAAAK
notes: HSPB6 (HSP20), human small heat shock protein; also called HSP20; WT HSPB6
binds: human HSPB1 R127W mutant [4] | human HSPB1 S135F mutant [5] | [6]
